This experiment has as its target HLA-B1501 (human). Nature of the experiment: competition with radiolabeled probe peptide for purified HLA, plate capture, cpm.

Experimental findings from patent publication US20110014224A1 are described below.

As to AVINTTCNYGQ (modifications not checked) [Mtb8.4 5-15 peptide …], the 50% inhibitory concentration (IC50) turned out to be 10 nM.
